Patent publication US20190352359A1 (IMMATICS BIOTECHNOLOGIES, published 2019)

Target: T1, HLA-A*24
T1 construct: Monomers captured on streptavidin plates; also called peptide-receptive MHC molecules; MHC complexes
Assay: UV peptide-exchange ELISA (anti-b2m); yield grade + = >10%
Excerpt: Candidate peptides for T cell based therapies according to the present invention were further tested for their MHC binding capacity (affinity). The individual peptide-MHC complexes were produced by UV-ligand exchange, where a UV-sensitive peptide is cleaved upon UV-irradiation, and exchanged with the peptide of interest as analyzed. Only peptide candidates that can effectively bind and stabilize the peptide-receptive MHC molecules prevent dissociation of the MHC complexes. To determine the yield of the exchange reaction, an ELISA was performed based on the detection of the light chain (p2m) of stabilized MHC complexes. The assay was performed as generally described in Rodenko et al. (Rodenko et al., 2006)
96 well MAXISorp plates (NUNC) were coated over night with 2 ug/ml streptavidin in PBS at room temperature, washed 4× and blocked for 1 h at 37° C. in 2% BSA containing blocking buffer. Refolded HLA-A*02:01/MLA-001 monomers served as standards, covering the range of 15-500 ng/ml. Peptide-MHC monomers of the UV-exchange reaction were diluted 100-fold in blocking buffer. Samples were incubated for 1 h at 37° C., washed four times, incubated with 2 ug/ml HRP conjugated anti-β2m for 1h at 37° C., washed again and detected with TMB solution that is stopped with […]. Absorption was measured at 450 nm. Candidate peptides that show a high exchange yield (preferably higher than 50%, most preferred higher than 75%) are generally preferred for a generation and production of antibodies or fragments thereof, and/or T cell receptors or fragments thereof, as they show sufficient avidity to the MHC molecules and prevent dissociation of the MHC complexes.

## LQIPVSPSF (also called LQIPVSPSF) [MAGEC1-004]
  peptide exchange yield: 10 to 20%

## IVTFMNKTLGTF (also called IVTFMNKTLGTF) [ADAM29-001]
  peptide exchange yield: 10 to 20%
